Literature values as cited in article PMC10830413.
pKd: −log10 of the molar value. Like-named read-outs stand apart in the source and are kept apart here.

Experiments:
LPHN3 [1] = molecular target: LPHN3 (UniProt Q9HAR2)
LPHN3 [2] = molecular target: LPHN3 (UniProt Q9HAR2); remark: listed apart in the source

Sequence of UniProt Q9HAR2 (Q9HAR2 20-862): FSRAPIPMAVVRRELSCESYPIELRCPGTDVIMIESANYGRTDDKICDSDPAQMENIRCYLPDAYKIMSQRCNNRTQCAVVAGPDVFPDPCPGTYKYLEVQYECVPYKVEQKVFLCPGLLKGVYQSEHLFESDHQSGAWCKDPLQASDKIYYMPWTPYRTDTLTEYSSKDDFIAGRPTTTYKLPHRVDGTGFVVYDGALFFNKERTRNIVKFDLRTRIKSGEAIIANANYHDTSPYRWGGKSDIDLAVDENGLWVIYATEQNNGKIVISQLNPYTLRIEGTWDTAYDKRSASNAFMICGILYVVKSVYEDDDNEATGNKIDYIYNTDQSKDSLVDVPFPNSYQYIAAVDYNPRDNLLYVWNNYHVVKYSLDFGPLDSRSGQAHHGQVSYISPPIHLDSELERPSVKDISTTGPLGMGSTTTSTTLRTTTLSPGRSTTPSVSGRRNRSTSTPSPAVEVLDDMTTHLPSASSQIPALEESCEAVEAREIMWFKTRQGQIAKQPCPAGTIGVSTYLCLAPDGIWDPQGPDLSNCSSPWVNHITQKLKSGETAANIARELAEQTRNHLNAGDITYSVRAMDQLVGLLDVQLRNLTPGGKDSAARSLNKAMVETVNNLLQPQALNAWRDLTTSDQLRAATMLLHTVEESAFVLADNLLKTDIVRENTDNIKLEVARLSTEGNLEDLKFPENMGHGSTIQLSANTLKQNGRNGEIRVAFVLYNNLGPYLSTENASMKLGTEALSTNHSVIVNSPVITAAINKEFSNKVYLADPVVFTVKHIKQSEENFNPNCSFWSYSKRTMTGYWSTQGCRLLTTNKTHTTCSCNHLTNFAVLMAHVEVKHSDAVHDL

| pKd (LPHN3 [1]) | pKd (LPHN3 [2]) | Substance |
| --- | --- | --- |
| 7.82 | – | FLRT3 (from UniProt Q9NZU0) |
| – | 6.30 | TENM2 (from UniProt Q9NT68) |
